Experimental data: patent publication US20220298225A1 (published 2022)
Like-named read-outs stand apart in the source and are kept apart here.

Key:
Experiment in all cases: ELISA
Collagen I [1] = molecular target: Collagen I
Collagen III [2] = molecular target: Collagen III
Collagen I [3] = molecular target: Collagen I; remark: listed apart in the source
Collagen III [4] = molecular target: Collagen III; remark: listed apart in the source

Kd (Collagen I [1]): 0.0018 µM | Kd (Collagen III [2]): 0.0406 µM | Kd (Collagen I [3]): 0.0018 µM | Kd (Collagen III [4]): 0.0406 µM
B1: CBD-SA (other)
chain: CSQPLDVILLLDGSSSFPASYFDEMKSFAKAFISKANIGPRLTQVSVLQYGSITTIDVPWNVVPEKAHLLSLVDVMQREGGPSQIGDALGFAVRYLTSEMHGARPGASKAVVILVTDVSVDSVDAAADAARSNRVTVFPIGIGDRYDAAQLRILAGPAGDSNVVKLQRIEDLPTMVTLGNSFLHKLCSGFVRIGGGSGGGSEAHKSEIAHRYNDLGEQHFKGLVLIAFSQYLQKCSYDEHAKLVQEVTDFAKTCVADESAANCDKSLHTLFGDKLCAIPNLRENYGELADCCTKQEPERNECFLQHKDDNPSLPPFERPEAEAMCTSFKENPTTFMGHYLHEVARRHPYFYAPELLYYAEQYNEILTQCCAEADKESCLTPKLDGVKEKALVSSVRQRMKCSSMQKFGERAFKAWAVARLSQTFPNADFAEITKLATDLTKVNKECCHGDLLECADDRAELAKYMCENQATISSKLQTCCDKPLLKKAHCLSEVEHDTMPADLPAIAADFVEDQEVCKNYAEAKDVFLGTFLYEYSRRHPDYSVSLLLRLAKKYEATLEKCCAEANPPACYGTVLAEFQPLVEEPKNLVKTNCDLYEKLGEYGFQNAILVRYTQKAPQVSTPTLVEAARNLGRVGTKCCTLPEDQRLPCVEDYLSAILNRVCLLHEKTPVSEHVTKCCSGSLVERRPCFSALTVDETYVPKEFKAETFTFHSDICTLPEKEKQIKKQTALAELVKHKPKATAEQLKTVMDDFAQFLDTCCKAADKDTCFSTEGPNLVTRCKDALAHHHHHH
